This series is described as follows: soluble on expression in E. coli; label from the status in PepcDB or PDB records.
With “MERLKIQVLVDNNTYIDRYFVGEPAVSYYIEIDGNRILFDSGYSDVFISNAEKLNIDLGNLTHVVFSHGHNDHTRGIQFLENRYDLSTVELVSHPNCFIPRKHGEKSIGAPFSAEEIKNIFMYNPKDKPFNLSKNCVFLGEIPSINDFEKRAKIGKCKIGDLWEDDYVLDDSAIVCKTDKGIFIVTGCSHSGICNIVEYAKKVCGDDRVIGILGGFHLFELNNRLDSTIQYLDKEEIRMLYPCHCVSFKVKAKMNEILNINEVGVGLTISILEHHHHHH”, the “soluble on expression in E. coli” value is “soluble”.
With “MERTVVETRYGRLRGEMNEGVFVWKGIPYAKAPVGERRFLPPEPPDAWDGVREATSFGPVVMQPSDPIFSGLLGRMSEAPSEDGLYLNIWSPAADGKKRPVLFWIHGGAFLFGSGSSPWYDGTAFAKHGDVVVVTINYRMNVFGFLHLGDSFGEAYAQAGNLGILDQVAALRWVKENIAAFGGDPDNITIFGESAGAASVGVLLSLPEASGLFRRAMLQSGSGSLLLRSPETAMAMTERILDKAGIRPGDRERLLSIPAEELLRAALSLGPGVMYGPVVDGRVLRRHPIEALRYGAASGIPILIGVTKDEYNLFTLTDPSWTKLGEKELLDRINREVGPVPEEAIRYYKETAEPSAPTWQTWLRIMTYRVFVEGMLRTADAQAAQGADVYMYRFDYETPVFGGQLKAAHALELPFVFHNLHQPGVANFVGNRPEREAIANEMHYAWLSFARTGDPNGAHLPEAWPAYTNERKAAFVFSAASHVEDDPFGRERAAWQGR”, the “soluble on expression in E. coli” value is given as “soluble”.
In the case of “MESAGFHYKLDIPAGTPDCAIVLLHGSGRTEDDLISFGRAVFPTGALYAPRGAVAWENGFAFFRRKPDRELDIDDLKHQATRLCHFVAFVFQQTGRRPILVGYSNGAIIAAETICQAHHLSKGAILLRPLSPRKDQSLPNLAGYPVLLLAGASDDRRHPSDAPHLSEQLTSAGADAVLETINTGHGWAEDAADERLSRQWLARLPIA” it was “not soluble”; in that of “MESENQIAILDYIFNQVNQPNQPKIVWFSGEGEDEKINFLIRLNDFFKPKFVENTNDSSFLLSFRNHVETKNSTPLTQANFANIANKLLAVLFGSLQWKQLNK”, “not soluble”; in that of “MESGHRFDAQTLHSFIQAVFRQMGSEEQEAKLVADHLIAANLAGHDSHGIGMIPSYVRSWSQGHLQINHHAKTVKEAGAAVTLDGDRAFGQVAAHEAMALGIEKAHQHGIAAVALHNSHHIGRIGYWAEQCAAAGFVSIHFVSVVGIPMVAPFHGRDSRFGTNPFCVVFPRKDNFPLLLDYATSAIAFGKTRVAWHKGVPVPPGCLIDVNGVPTTNPAVMQESPLGSLLTFAEHKGYALAAMCEILGGALSGGKTTHQETLQTSPDAILNCMTTIIINPELFGAPDCNAQTEAFAEWVKASPHDDDKPILLPGEWEVNTRRERQKQGIPLDAGSWQAICDAARQIGMPEETLQAFCQQLAS”, “soluble”.
For “MESNEDVERLLCQKYPGLAAELQPSGACIIRGVLGSEDTWRRLKLYLPHHPALHGFQLYVQESLEYKLYTSANLKLQDDWLLEDFLDHLPKILPAQKAPTVPKELCREGNIYYDILALYKSNEYCLQVDEACSMIRFSEFTDFEQHYLELKIPSLLLLDHSLPDCVSLGEMLTKSAGNLEEALNLFRKLLEDLRPFYDNFMDIDELCHVLQPSPISSKHKTRLFPLKDRVYLKLTIADPFACIASMSLKIIGPTEEVARLRHVLSDGLSNWDSEMNIHKNLLRMFDLCYFPMPDWSDGPKLDEEDNEELRCNICFAYRLDGGEVPLVSCDNAKCVLKCHAVCLEEWFKTLMDGKTFLEVSFGQCPFCKAKLSTSFAALLND”, the “soluble on expression in E. coli” value is “soluble”.
Then “MESVTRKSVLQLEERPGDSSSSSDEEINTIGNVPLDWYKDLSHIGYTRDGIKLLRRKRVGPLCPVYVKKGFYYLYDEKNDEEIALSRNDLKRLVSIVRLQNPSGATESGFVGEEIVFWTGTPRIEPIRNRNEPKRSFLPSRHEAAQVVKLVRSILRRKRIEELKEHKSEKEDLSIWEETSFEQVGRSHHYLPPPKTPLPGHEESYRPPPEFLLNEEEKSKRKENNELVPETYNFLRHVPLYTSLIREHFERCLELYCAPRMRVRRRKIDPEALLPKLPSPDTLRPFPDSQVASFGPHAGAIRAISLNSNGQWLACACQDGSVSIWEVATGICRIRIDFQEKLKEMLASFESLSQATESEMESMGQYEDLSILHVAWSPKENDFKLAVCIKHFVAVVNVAHILYPDEAQDSQSFGYSVVGEPSSNWKDWKDERGNLGRIAIIEHSRKVQHVHWHQRGDYFVVLTKNAFGSSLVVHQLSRKRTQSPFSKSAKGVITADFHPSKSLFFITTKHHVRIYDLAQAQLVNKLVTGISEISAMSVHPSGNHVLIGSVEGQLVWFDLDLSSRPYKRIRDHTYTVSSIAFHPTLPLFADASDDQTVAVFHATVYEDLLQNPLIVPLKVLKLPHNSKGTGVWSICWHPQLPWLFVSGIDEYVRLYADTS”, with “soluble”; and “METAPDEAPTEFLEPGEEIVENVIEEEVVHEEDVEHHEEDGEMIEVQHEEVLEEIVEEDGMMFDTDGRVIEYSDVMVYEEGTEVIEEYVEVEDLGDGRYAYVMTDDIGHRRLLKPHEVEAVKKMPGMMEEEVVMDDEKAPNTSYAAAQKRGRFPPQARSSLSPQKPRAAGAYMGPEAYYQQPKRMTHMAKVDVEKYSPVTPVNRRPLMDNAIFKSKLPRKSAPWQEETAANGGPQSTSLIRSPSPMLKEPLFDDNEIRFKCAECGDGFPVMDRLCDHMIKQHDCQTNVREVQFFADRDFENFLLKVEKATLGRDPEDAIRKKSRAGSSQLFVCNYMNKGRQKMAELVEVGIVGLSERPLEVCTAFVQKTHGYECIRVKYCDQHIHYDGNIGFRVPIAVKRRLFEMSFKRLPIPCMQIMLGLEAEQLLPHPTRFEEKLKNLSHVEIIELLQIINASLRKHQEVEPRGKKVPIKFETIKSSEGSQTLMVKRVTPPKKEHMDYDEPDPNIPSTSAQALGYNPDDDEGDDVPMMSREEEVLDDETGEESVMTEDCDGMMEDNMCSFLVFFCWRKNGEK”, with “not soluble”.
In the case of “METEIKRTSTKDIIAYLTEKFPECFSIKGPVKPLKIGIFQDLAEKLDDDETVSKTRLRQALRHYTSSWRYLKVIKVGNSRVDVDGKDVAEIDEDQAAYASKTLKESQEKFGNKKATDNDAKKPYKGKQGSTEAANNKPADKKRESTKFKTVKSTPKKTVKKEVEPLKSVESTTINVGSKVRVQLGNSPMKATITEISGKDISVQLDSGMVIKTQLQNIYL” it was “not soluble”.
Consider “METFGVFHKEDDEQMDLPPGFRFHPTDEELITHYLHKKVLDLGFSAKAIGEVDLNKAEPWELPYKAKIGEKEWYFFCVRDRKYPTGLRTNRATQAGYWKATGKDKEIFRGKSLVGMKKTLVFYRGRAPKGQKTNWVMHEYRLDGKLSAHNLPKTAKNEWVICRVFHKTAGGKKIPISTLIRIGSYGTGSSLPPLTDSSPYNDKTKTEPVYVPCFSNQAETRGTILNCFSNPSLSSIQPDFLQMIPLYQPQSLNISESSNPVLTQEQSVLQAMMENNRRQNFKTLSISQETGVSNTDNSSVFEFGRKRFDHQEVPSPSSGPVDLEPFWNY”, for which the “soluble on expression in E. coli” value is “soluble”.
Then “METGAGIGLYPLHRCKTIYLVRHAQGIHNVDGEKNYKAYMSHDYFDAELTQLGWKQVDSLRKHVHSSGLHKKIELVISSPLMRTLQTAVGVFGGEGYTDMSDVLPLMVANAGNSSRAAISSLNCPPVITEESCREHLGVHPCDQRRSISDYQFLFPAVDFSLIESEEDKLWKADVRETIEELAARGKKFLNWLWTRKEKEIAIVTHSGFLFHTLNALQNECHPDVKKEICGHFANCELRSMVIVDRSMLGSDSSVTDYPGKIPKGIDLPSDAVVDDNNIKVE”, with “soluble”.
Then “METGTPLIAETIALTEKKVAMALDDIIKLAKRKTNVNKGKKPRREKNKNQNFNGAARNNTSNVRHHMNSLSAVRQGAVGKRRSRFQGIQFPVTTNIARKASTAAPLDFRGRAFNGGRMTSANQSRLIAPPVQNISVQARVNAKRHEVDQKVEHRGGKRKTLDSRFASMKEQRMTINNYGVTVQVPRLPPWVRARRFSQ”, with “not soluble”.
Then “METKKIAGVLVTMVAPFENHMANGGEKLFGNASSIKRRPDGRVYVSGQMQRHVLFSAIDRLNHLDKAKGTTFVSNGDGITNLIEIDLRADLGGFMHTNKGDYSDRRIAPLSVTPATALDTSSVGRDLLVRIRFDKSSDAKNQALATREYSEQDKMNMNFFLDITSVGVSKSFVYKDGLNLGTKYFKHITDDEKKRRVKLFLEATRIMNDYANQARNAVCGEPEKVLIVFDDRLSRKACRYYTVGEKEQANIIKELDQYQVKYFVGDDASDYSVADAYRDAMNYLDKATLVDFAEGEEIMTFAEAFECKEKEPQEKKSKKGKDKATSAQNLFAEQQDDQ”, with “not soluble”.

Source of the values: the DeepSol protein solubility set.
